Data taken from patent publication CN116355095A.

Assays:
[1] = target: T1, CHO-K1-T1001细胞表达的人TIGIT (human) (UniProt Q495A1); assay: cell ELISA on fixed CHO-K1-T1001 cells; reference Ref1
T1 sequence (looked up): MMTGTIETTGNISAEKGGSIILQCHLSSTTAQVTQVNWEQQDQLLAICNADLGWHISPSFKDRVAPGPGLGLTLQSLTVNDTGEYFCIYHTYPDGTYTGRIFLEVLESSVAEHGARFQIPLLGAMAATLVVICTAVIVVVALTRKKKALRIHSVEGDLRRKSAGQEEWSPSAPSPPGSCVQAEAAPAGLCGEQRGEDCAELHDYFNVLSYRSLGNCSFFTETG

人TIGIT-hFc (human) = 人TIGIT-hFc (human) (UniProt Q495A1); assay: blocking ELISA: Bio-CD155 on coated TIGIT-hFc; reference Ref1

fold better than Ref1 (结合活性) [1]: 1.73 fold
fold better than Ref1 (阻断活性) (人TIGIT-hFc (human)): 1.83 fold
B1: IF091 (鼠源单克隆抗体mab22) (antibody, V domains shown)
VH: EVKLVESGGGLVQPGGSLKLSCVASGFTFSSYTMSWVRQTPEKRLELVAEISSSGGSTYYPDTVKGRFTISRDNAKNTLFLQMNSLKSEDTAMYYCARPGLGAWFAYWGQGTLVTVSA
VL: DVLMTQTPLSLPVSLGDQASISCRSSQSIVHNSGNTYLEWYLQKPGQSPKLLIYKVSNRFSGVPDRFSGSGSGTDFTLKISRVEAEDLGIYYCFQFSHVPRTFGGGTKLEIK
